Data: PMC5303827 (Nature Communications, 2017)
Positions count from the first letter of the chain named. Blank lines part the entries; values can stand above or below the binder they belong to.

How the values were obtained:
Settings in all cases: both partners purified
[1] = molecular target: T1, Ufd2p NLM (S. cerevisiae, UniProt P54860 1-961, E51A | K52A | L53A | D54A | K55A | E105A | N106A | M109A | N110A); assay: pull-down; GST-Rad23p used to pull down Ufd2p, Ufd2p N mut-1 or Ufd2p NLM; blot with anti-Ufd2; GST as control
T1 construct: Ufd2p, S. cerevisiae, amino acids 1-961, two N-terminal loops mutated to alanine; prey of the GST-Rad23p pull-down and enzyme of the ubiquitination reactions; also called Ufd2 NLM
T1 sequence (looked up): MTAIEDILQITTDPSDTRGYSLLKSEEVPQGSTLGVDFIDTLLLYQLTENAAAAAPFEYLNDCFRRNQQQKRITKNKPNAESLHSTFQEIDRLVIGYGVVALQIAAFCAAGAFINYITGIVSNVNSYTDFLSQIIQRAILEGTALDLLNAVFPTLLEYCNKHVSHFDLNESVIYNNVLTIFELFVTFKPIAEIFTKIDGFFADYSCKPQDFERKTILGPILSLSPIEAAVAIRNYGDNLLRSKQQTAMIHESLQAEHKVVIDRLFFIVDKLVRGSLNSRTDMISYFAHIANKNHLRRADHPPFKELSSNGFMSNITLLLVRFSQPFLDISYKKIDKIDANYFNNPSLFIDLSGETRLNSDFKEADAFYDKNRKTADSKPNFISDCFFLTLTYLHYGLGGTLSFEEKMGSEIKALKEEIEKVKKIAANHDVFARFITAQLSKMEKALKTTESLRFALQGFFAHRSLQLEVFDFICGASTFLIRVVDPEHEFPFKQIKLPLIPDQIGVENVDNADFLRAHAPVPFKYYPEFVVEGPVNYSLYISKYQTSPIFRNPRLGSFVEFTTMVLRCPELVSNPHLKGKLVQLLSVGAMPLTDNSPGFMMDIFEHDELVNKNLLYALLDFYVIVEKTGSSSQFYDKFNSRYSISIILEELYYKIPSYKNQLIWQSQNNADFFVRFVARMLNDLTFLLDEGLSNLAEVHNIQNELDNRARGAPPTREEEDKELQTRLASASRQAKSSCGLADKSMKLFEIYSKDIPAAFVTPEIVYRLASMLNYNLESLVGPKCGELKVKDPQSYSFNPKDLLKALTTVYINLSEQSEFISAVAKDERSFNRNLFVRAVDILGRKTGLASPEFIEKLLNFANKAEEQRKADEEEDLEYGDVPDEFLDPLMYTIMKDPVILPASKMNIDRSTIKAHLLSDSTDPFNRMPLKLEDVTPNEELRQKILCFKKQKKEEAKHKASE

[2] = molecular target: T2, Ufd2p (S. cerevisiae, UniProt P54860 1-961); assay: as above
T2 construct: Ufd2p, S. cerevisiae, amino acids 1-961; also called wild-type Ufd2p; source: E. coli Rosetta (DE3), purified
T2 sequence (looked up): T1 sequence (looked up) with A51E, A52K, A53L, A54D, A55K, A105E, A106N, A109M, A110N

[3] = molecular target: T3, wild-type Ufd2p (GST pull-down with Rad23p, Supplementary Fig. 14) (S. cerevisiae, UniProt P54860 1-961); assay: pull-down; GST pull-down of Ufd2p or Ufd2p NLM with Rad23p (Supplementary Fig. 14); which partner carried GST is not told
T3 construct: Ufd2p, S. cerevisiae; amino acids 1-961; May be the same as m2 if Ufd2p was the GST-tagged bait
T3 sequence (looked up): T1 sequence (looked up) with A51E, A52K, A53L, A54D, A55K, A105E, A106N, A109M, A110N

[4] = molecular target: T4, Ufd2p NLM (GST pull-down with Rad23p, Supplementary Fig. 14) (S. cerevisiae, UniProt P54860 1-961, E51A | K52A | L53A | D54A | K55A | E105A | N106A | M109A | N110A); assay: as above
T4 construct: Ufd2p, S. cerevisiae; 1-961 with residues of the two N-terminal loops mutated to alanine; May be the same as m12 if Ufd2p NLM was the GST-tagged bait
T4 sequence (looked up): T1 sequence (looked up)

binding result [1]: binds
binding result [2]: binds
B1: GST-Rad23p (natural protein, S. cerevisiae, UniProt P32628 1-398, looked up)
chain: MVSLTFKNFKKEKVPLDLEPSNTILETKTKLAQSISCEESQIKLIYSGKVLQDSKTVSECGLKDGDQVVFMVSQKKSTKTKVTEPPIAPESATTPGRENSTEASPSTDASAAPAATAPEGSQPQEEQTATTERTESASTPGFVVGTERNETIERIMEMGYQREEVERALRAAFNNPDRAVEYLLMGIPENLRQPEPQQQTAAAAEQPSTAATTAEQPAEDDLFAQAAQGGNASSGALGTTGGATDAAQGGPPGSIGLTVEDLLSLRQVVSGNPEALAPLLENISARYPQLREHIMANPEVFVSMLLEAVGDNMQDVMEGADDMVEGEDIEVTGEAAAAGLGQGEGEGSFQVDYTPEDDQAISRLCELGFERDLVIQVYFACDKNEEAAANILFSDHAD
notes: Rad23p, ubiquitin receptor for the proteasome, yeast; source: E. coli Rosetta (DE3), purified (Glutathione Sepharose 4B, size exclusion chromatography); not shown: GST, N-terminal, kept

binding result [3]: binds
binding result [4]: binds
B2: Rad23p (GST pull-down with Ufd2p, Supplementary Fig. 14) (natural protein, UniProt P32628 1-398, looked up)
chain: B1 chain
notes: Rad23p; May be the same as m19 if Rad23p was the GST-tagged bait
